# Measured values reported in patent US20250327097A1, “ORGANISMS PRODUCING LESS CROTONIC ACID” (Global Bioenergies, priority 2021, published 2025).
# System: 3-methylcrotonic acid
# Type: biochemical, Yersinia frederiksenii
# Set-up: key: “+” representing a low increase in activity; “++++” representing a high increase in activity
row,Molecule,Activity relative to WT
1,I283T-N285P-N287T-Q290E-S322T-N388M-K394R-C430A-i430aG-L432F-L434W-S436N-C437L-dG462 (protein) MFLKSLREQINLLKRQGDLRIINRPVDSYLEAAAIIRRSTETKAPVPLMTNIKGYPGCSIVGGLAALSSNPEYPLSRVAMSLGLSTTASAQSIVQYLIDGLKKTPYLPVEIDSNSAPCKQNILRGEDASLAHFPIPQVHQHDGNRYVNTWGVFIVESPDGQWCNWSIQRVQYLNDRQMIALVFPSQHISDIWEEWVKIGKPMPYALVQGCEPIVPYIAGLPLLERNVNEAEYIGALYGKGIEVVKCETHDLRVPASSEVVIEGYFAITREGVEGPFGEFAGYTPPETSLEPILSITAISWQDDPIWPVVAEGKPVDEYHTCTGIGDAAAIQNVLLTANLPVSFVWVPLYSACHLMIVSINRHWRQTHPDLTSEQLTKKVGDVIHQTRMSIKLPRIVVLDDDVDPADTESLLWALATRIHPERKRYFYESAIFPWLNLYSEEERHNRKGKRVIIDALLPENHGAISSFDYAYPDDIKQRVLMHWETDFSHD,++++
2,L223Y-I283T-N285P-N287T-Q290E-S322T-N388M-K394R-C430A-L432F-L434W-S436N-C437L-dG462 (protein) MFLKSLREQINLLKRQGDLRIINRPVDSYLEAAAIIRRSTETKAPVPLMTNIKGYPGCSIVGGLAALSSNPEYPLSRVAMSLGLSTTASAQSIVQYLIDGLKKTPYLPVEIDSNSAPCKQNILRGEDASLAHFPIPQVHQHDGNRYVNTWGVFIVESPDGQWCNWSIQRVQYLNDRQMIALVFPSQHISDIWEEWVKIGKPMPYALVQGCEPIVPYIAGLPLYERNVNEAEYIGALYGKGIEVVKCETHDLRVPASSEVVIEGYFAITREGVEGPFGEFAGYTPPETSLEPILSITAISWQDDPIWPVVAEGKPVDEYHTCTGIGDAAAIQNVLLTANLPVSFVWVPLYSACHLMIVSINRHWRQTHPDLTSEQLTKKVGDVIHQTRMSIKLPRIVVLDDDVDPADTESLLWALATRIHPERKRYFYESAIFPWLNLYSEEERHNRKGKRVIIDALLPENHGAISSFDYAYPDDIKQRVLMHWETDFSHD,++++
3,I283T-N285P-N287T-Q290E-S322T-N388M-K394R-C430A-i430aG-L432F-L434W-S436N-V451S-dG462 (protein) MFLKSLREQINLLKRQGDLRIINRPVDSYLEAAAIIRRSTETKAPVPLMTNIKGYPGCSIVGGLAALSSNPEYPLSRVAMSLGLSTTASAQSIVQYLIDGLKKTPYLPVEIDSNSAPCKQNILRGEDASLAHFPIPQVHQHDGNRYVNTWGVFIVESPDGQWCNWSIQRVQYLNDRQMIALVFPSQHISDIWEEWVKIGKPMPYALVQGCEPIVPYIAGLPLLERNVNEAEYIGALYGKGIEVVKCETHDLRVPASSEVVIEGYFAITREGVEGPFGEFAGYTPPETSLEPILSITAISWQDDPIWPVVAEGKPVDEYHTCTGIGDAAAIQNVLLTANLPVSFVWVPLYSACHLMIVSINRHWRQTHPDLTSEQLTKKVGDVIHQTRMSIKLPRIVVLDDDVDPADTESLLWALATRIHPERKRYFYESAIFPWLNCYSEEERHNRKGKRSIIDALLPENHGAISSFDYAYPDDIKQRVLMHWETDFSHD,++++
4,L223Y-I283T-N285P-N287T-Q290E-S322T-N388M-K394R-C430A-i430aN-L432F-L434W-S436N-dG462 (protein) MFLKSLREQINLLKRQGDLRIINRPVDSYLEAAAIIRRSTETKAPVPLMTNIKGYPGCSIVGGLAALSSNPEYPLSRVAMSLGLSTTASAQSIVQYLIDGLKKTPYLPVEIDSNSAPCKQNILRGEDASLAHFPIPQVHQHDGNRYVNTWGVFIVESPDGQWCNWSIQRVQYLNDRQMIALVFPSQHISDIWEEWVKIGKPMPYALVQGCEPIVPYIAGLPLYERNVNEAEYIGALYGKGIEVVKCETHDLRVPASSEVVIEGYFAITREGVEGPFGEFAGYTPPETSLEPILSITAISWQDDPIWPVVAEGKPVDEYHTCTGIGDAAAIQNVLLTANLPVSFVWVPLYSACHLMIVSINRHWRQTHPDLTSEQLTKKVGDVIHQTRMSIKLPRIVVLDDDVDPADTESLLWALATRIHPERKRYFYESAIFPWLNCYSEEERHNRKGKRVIIDALLPENHGAISSFDYAYPDDIKQRVLMHWETDFSHD,++++
5,I283T-N285P-N287T-Q290E-S322T-N388M-S389H-K394R-C430A-i430aG-L432F-L434W-S436N-dG462 (protein) MFLKSLREQINLLKRQGDLRIINRPVDSYLEAAAIIRRSTETKAPVPLMTNIKGYPGCSIVGGLAALSSNPEYPLSRVAMSLGLSTTASAQSIVQYLIDGLKKTPYLPVEIDSNSAPCKQNILRGEDASLAHFPIPQVHQHDGNRYVNTWGVFIVESPDGQWCNWSIQRVQYLNDRQMIALVFPSQHISDIWEEWVKIGKPMPYALVQGCEPIVPYIAGLPLLERNVNEAEYIGALYGKGIEVVKCETHDLRVPASSEVVIEGYFAITREGVEGPFGEFAGYTPPETSLEPILSITAISWQDDPIWPVVAEGKPVDEYHTCTGIGDAAAIQNVLLTANLPVSFVWVPLYSACHLMIVSINRHWRQTHPDLTSEQLTKKVGDVIHQTRMHIKLPRIVVLDDDVDPADTESLLWALATRIHPERKRYFYESAIFPWLNCYSEEERHNRKGKRVIIDALLPENHGAISSFDYAYPDDIKQRVLMHWETDFSHD,++++
6,H141C-I283T-N285P-N287T-Q290E-S322T-N388M-K394R-C430A-i430aG-L432F-L434W-S436N-dG462 (protein) MFLKSLREQINLLKRQGDLRIINRPVDSYLEAAAIIRRSTETKAPVPLMTNIKGYPGCSIVGGLAALSSNPEYPLSRVAMSLGLSTTASAQSIVQYLIDGLKKTPYLPVEIDSNSAPCKQNILRGEDASLAHFPIPQVHQCDGNRYVNTWGVFIVESPDGQWCNWSIQRVQYLNDRQMIALVFPSQHISDIWEEWVKIGKPMPYALVQGCEPIVPYIAGLPLLERNVNEAEYIGALYGKGIEVVKCETHDLRVPASSEVVIEGYFAITREGVEGPFGEFAGYTPPETSLEPILSITAISWQDDPIWPVVAEGKPVDEYHTCTGIGDAAAIQNVLLTANLPVSFVWVPLYSACHLMIVSINRHWRQTHPDLTSEQLTKKVGDVIHQTRMSIKLPRIVVLDDDVDPADTESLLWALATRIHPERKRYFYESAIFPWLNCYSEEERHNRKGKRVIIDALLPENHGAISSFDYAYPDDIKQRVLMHWETDFSHD,++++
7,L223Y-I283T-N285P-N287T-Q290E-S322T-N388M-K394R-C430A-i430aL-L432F-L434W-S436N-dG462 (protein) MFLKSLREQINLLKRQGDLRIINRPVDSYLEAAAIIRRSTETKAPVPLMTNIKGYPGCSIVGGLAALSSNPEYPLSRVAMSLGLSTTASAQSIVQYLIDGLKKTPYLPVEIDSNSAPCKQNILRGEDASLAHFPIPQVHQHDGNRYVNTWGVFIVESPDGQWCNWSIQRVQYLNDRQMIALVFPSQHISDIWEEWVKIGKPMPYALVQGCEPIVPYIAGLPLYERNVNEAEYIGALYGKGIEVVKCETHDLRVPASSEVVIEGYFAITREGVEGPFGEFAGYTPPETSLEPILSITAISWQDDPIWPVVAEGKPVDEYHTCTGIGDAAAIQNVLLTANLPVSFVWVPLYSACHLMIVSINRHWRQTHPDLTSEQLTKKVGDVIHQTRMSIKLPRIVVLDDDVDPADTESLLWALATRIHPERKRYFYESAIFPWLNCYSEEERHNRKGKRVIIDALLPENHGAISSFDYAYPDDIKQRVLMHWETDFSHD,++++
8,I283T-N285P-N287T-Q290E-S322T-I330V-N388M-K394R-C430A-i430aG-L432F-L434W-S436N-dG462 (protein) MFLKSLREQINLLKRQGDLRIINRPVDSYLEAAAIIRRSTETKAPVPLMTNIKGYPGCSIVGGLAALSSNPEYPLSRVAMSLGLSTTASAQSIVQYLIDGLKKTPYLPVEIDSNSAPCKQNILRGEDASLAHFPIPQVHQHDGNRYVNTWGVFIVESPDGQWCNWSIQRVQYLNDRQMIALVFPSQHISDIWEEWVKIGKPMPYALVQGCEPIVPYIAGLPLLERNVNEAEYIGALYGKGIEVVKCETHDLRVPASSEVVIEGYFAITREGVEGPFGEFAGYTPPETSLEPILSITAISWQDDPIWPVVAEGKPVDEYHTCTGIGDAAAVQNVLLTANLPVSFVWVPLYSACHLMIVSINRHWRQTHPDLTSEQLTKKVGDVIHQTRMSIKLPRIVVLDDDVDPADTESLLWALATRIHPERKRYFYESAIFPWLNCYSEEERHNRKGKRVIIDALLPENHGAISSFDYAYPDDIKQRVLMHWETDFSHD,++++
9,L222V-I283T-N285P-N287T-Q290E-S322T-N388M-K394R-C430A-i430aG-L432F-L434W-S436N-dG462 (protein) MFLKSLREQINLLKRQGDLRIINRPVDSYLEAAAIIRRSTETKAPVPLMTNIKGYPGCSIVGGLAALSSNPEYPLSRVAMSLGLSTTASAQSIVQYLIDGLKKTPYLPVEIDSNSAPCKQNILRGEDASLAHFPIPQVHQHDGNRYVNTWGVFIVESPDGQWCNWSIQRVQYLNDRQMIALVFPSQHISDIWEEWVKIGKPMPYALVQGCEPIVPYIAGLPVLERNVNEAEYIGALYGKGIEVVKCETHDLRVPASSEVVIEGYFAITREGVEGPFGEFAGYTPPETSLEPILSITAISWQDDPIWPVVAEGKPVDEYHTCTGIGDAAAIQNVLLTANLPVSFVWVPLYSACHLMIVSINRHWRQTHPDLTSEQLTKKVGDVIHQTRMSIKLPRIVVLDDDVDPADTESLLWALATRIHPERKRYFYESAIFPWLNCYSEEERHNRKGKRVIIDALLPENHGAISSFDYAYPDDIKQRVLMHWETDFSHD,++++
10,L223Y-I283T-N285P-N287T-Q290E-S322T-N388M-K394R-C430A-i430aG-L432F-L434W-S436N-C437L-dG462 (protein) MFLKSLREQINLLKRQGDLRIINRPVDSYLEAAAIIRRSTETKAPVPLMTNIKGYPGCSIVGGLAALSSNPEYPLSRVAMSLGLSTTASAQSIVQYLIDGLKKTPYLPVEIDSNSAPCKQNILRGEDASLAHFPIPQVHQHDGNRYVNTWGVFIVESPDGQWCNWSIQRVQYLNDRQMIALVFPSQHISDIWEEWVKIGKPMPYALVQGCEPIVPYIAGLPLYERNVNEAEYIGALYGKGIEVVKCETHDLRVPASSEVVIEGYFAITREGVEGPFGEFAGYTPPETSLEPILSITAISWQDDPIWPVVAEGKPVDEYHTCTGIGDAAAIQNVLLTANLPVSFVWVPLYSACHLMIVSINRHWRQTHPDLTSEQLTKKVGDVIHQTRMSIKLPRIVVLDDDVDPADTESLLWALATRIHPERKRYFYESAIFPWLNLYSEEERHNRKGKRVIIDALLPENHGAISSFDYAYPDDIKQRVLMHWETDFSHD,++++
